Laboratory results taken from US20230279079A1 (CHANG GUNG MEMORIAL HOSPITAL LINKOU, published 2023).
Residue numbers refer to the chain shown, from its start.

B1: EY 2A (antibody, V domains shown)
VH: QVQLVESGAEVTKPGDSLIISCKGSGYAFTQYWIGWVRQKPGKGLEWMAMVYPDSSAVFAGGASGVRYRPPFQGQVTISADTSVNTAYLQWDSLKASDTAMYYCVRQERGSNTWYAGNSWGQGTLVTVSS
VL: DIVMTQSPLSLPVSPGEPASISCRSSQSLLHTDAYNYLDWYLQKPGQSPQLLIYLGSTRASGVPDRFSGSGSGTDFTLKISSVKAEDVGVYYCMQALQTPGTFGQGTKLEIK
B2: EY 3B (antibody, V domains shown)
VH: B1 VH with Q1E, D16E, S129F
VL: B1 VL with D1E, M4L, L109V, K112R
B3: EW 4C (antibody, V domains shown)
VH: EVQLVESGPGLVKPSETLSLTCSVSADSFKKGYYWGWIRQPPGKGLESIVNSFDSGTTRYNPSLWGRATVSDMSKWHFSLKLTSVTAADTAVYYCVRGTYGSGLHWGQGILVTVSS
VL: QTVVTQEPSLTVSPGGTVTLTCGSSVGTVASGHYPYWVQQKPGQAPRTLIYDTDNKQSWTPARFSGSLLGGKAALTLSGAQPEDEADYYCFLSHNDAWVFGGGTKLTVL
B4: FD 10A (antibody, V domains shown)
VH: EVQLVESGGGLVQPGGSLRLSCAASGFTFSSYWMHWVRQAPGKGLVWVSRINSDGSSTSYADSVKGRFTISRDNAKNTLYLQMNSLRAEDTAVYYCANMAFDIWGQGTMVTVSS
VL: not shown
B5: FM 1A (antibody, V domains shown)
VH: EVQLLESGGGVVQPGRSLRLSCAASGFTFSSYGMHWVRQAPGKGLEWVAVIWYDGSNKYYADSVKGRFTISRDNSKNTLYLQMNSLRAEDTAVYYCAREGAVGATRGFDYWGQGTLVTVSS
VL: SYELTQPPSVSVAPGQTARITCGGNNIGSKSVHWYQQKPGQAPVLVVYDDSDRPSGIPERFSGSNSGNTATLTISRVEAGDEADYYCQVWDSSSDQGVFGGGTKLTVL
B6: FD 5E (antibody, V domains shown)
VH: EVQLVESGGVVVQPGGSLRLSCAASGFTFDDYAMHWVRQAPGKGLEWVSLISWDGGSTYYADSVKGRFTISRDNSKNSLYLQMNSLRAEDTALYYCAKDSVRFRYYYGMDVWGQGTTVTVSS
VL: EIVLTQSPATLSLSPGERATLSCRASQSVSSYLAWYQQKPGQAPRLLIYDASNRATGIPARFSGSGSGTDFTLTISSLEPEDFAVYYCQQRSNWPLTFGPGTKVDIK
B7: EW 9B (antibody, V domains shown)
VH: EVQLVQSGAEVKKPGASVKVSCKASGYTFTSYYMHWVRQAPGQGLEWMGIINPSGGSTSYAQKFQGRVTMTRDTSTSTVYMELSSLRSEDTAVYYCAREDGVVPAANLMISLEDYYYYGMDVWGQGTTVTVSS
VL: B6 VL with P100G
B8: FD 5D (antibody, V domains shown)
VH: EVQLVESGGGLVQPGGSLRLSCAASGFTFSSYSMNWVRQAPGKGLEWVSYISSSSSTIYYADPVKGRFTISRDNAKNSLYLQMNSLRAEDTAVYYCASPGGITAAGTSVLFGYYGMDVWGQGTMVTVSS
VL: not shown
B9: EW 9C (antibody, V domains shown)
VH: EVQLVESGGGVVQPGASLRLSCVASGFTFNNFGFHWVRQAPGKGLEWLAVISYEGSKTYYAESLKGRFTISRDTSKNTVYLQMNSLRAEDTAVYYCARATSIFWFGEGRNWFDPWGQGTMVTVSS
VL: EIVLTQSPGTVSLSAGERATLSCRASQNVGTDLAWYVQRPGQAPRLLIYDTSNKATGIPARFSGRGSGTDFTLTIDSLEPEDFAVYYCQQRSNWPLTFGGGTKVEIR
B10: EW 9C-1 (antibody, V domains shown)
VH: B9 VH with T119A, M120L
VL: B9 VL with L4M, K54R, R107K
B11: FG 7A (antibody, V domains shown)
VH: EVQLVESGGGVVQPGRSLRLSCAASGFTFSSYAMHWVRQAPGKGLEWVAVISYDGSNKYYADSVKGRFTISRDNSKNTLYLQMNSLRAEDTAVYYCARSHSGSYRASLDYWGQGTTVTVSS
VL: not shown
B12: FJ 4E (antibody, V domains shown)
VH: QVQLVESGPGLVKPSETLSLTCSVSGGSISSGTYYWSWIRQQPGKGLEWIGYIYNTGRPYYNPFLKSRITISVDSSKNQFSLKLTSVTAADTAVYYCARDEYDSSDSGIQGHWFDPWGQGTLVTVSS
VL: AIRMTQSPSSLSASVGDRVTITCRTSQNINSFLNWYQQKPGKGPNLLIYGAFTLQSGVPSRFSGSGSGTDFTLTISSLQPEDFATYFCQQSYSTPWTFGQGTKVEIK
B13: FB 1E (antibody, V domains shown)
VH: EVQLVESGAEVKKPGESLKISCQGSGYRFNSYWIAWVRQMPGKGLEWMGSIFPTDSDIRYNPSFQGQVTISADKSISIAYLQWSSLKASDTAIYYCARHWASMVRGVIRASHYYGMDVWGQGTTVTVSS
VL: QSVLTQPPSASGSPGQSVTISCSGASSDIGDYNYVSWYQQLPGKAPKLLIYEVTKRPSGVPDRFSGSKSGNTASLTVSGLQADDEADYYCSSYAFGGSDIRVFGGGTKLAVL
B14: EY 6A (antibody, V domains shown)
VH: EVQLVESGGGVVQPGRSLRLSCAASAFTFSSYDMHWVRQAPGKGLEWVAVISYDGSNKYYADSVKGRFTISRDNSKNTLYLQMNSLRAEDTAVYYCAKDGGKLWVYYFDYWGQGTTVTVSS
VL: not shown
B15: FI 3A (antibody, V domains shown)
VH: EVQLLESGGGLIQPGGSLRLSCAASGFTVSSNYMSWVRQAPGKGLEWVSVIYSGGSTYYADSVKGRFTISRDNSKNTLYLQMNSLRAEDTAVYYCARDHVRPGMNIWGQGTMVTVSS
VL: not shown
notes: also called FI 03A
B16: FD 11A (antibody, V domains shown)
VH: EVQLVESGGGVVQPGRSLRLSCAASGFTFSSYGMHWVRQAPGKGLEWVAVIWYDGSNKYYADSVKGRFTISRDNSKNTLYLQMNSLRAEDTAVYYCAKGPDILTGYYNYYYYGMDVWGQGTMVTVSS
VL: QSVLTQPPSVSGAPGQRVTISCTGSSSNIGAGYDVHWYQQLPGTAPKLLIYGNSNRPSGVPDRFSGSKSGTSASLAITGLQAEDEADYYCQSYDSSLSGFYVVFGGGTKLTVL

target: T1, SARS-CoV-2 nucleocapsid protein (SARS-CoV-2, UniProt P0DTC9 1-419); test: ELISA on recombinant protein
T1 construct: also called N protein

Binder | binding result
B1 | binds
B2 | binds
B3 | binds

target: T2, Human coronavirus OC43 spike extracellular domain (human coronavirus OC43, UniProt P36334 14-1297); test: ELISA
T2 construct: extracellular domain

Binder | binding result
B4 | binds
B5 | no binding
B6 | no binding
B7 | no binding
B8 | no binding
B9 | binds
B10 | binds
B11 | no binding

target: T3, SARS-CoV-2 spike extracellular domain (SARS-CoV-2, UniProt P0DTC2 14-1213); test: ELISA
T3 construct: extracellular domain; also called spike protein of SARS-CoV-2

Binder | binding result
B6 | binds
B7 | binds

target: T4, SARS-CoV-2 spike receptor binding domain (RBD) (SARS-CoV-2, UniProt P0DTC2 319-541); test: ELISA
T4 construct: also called SARS-CoV-2 RBD

Binder | binding result
B4 | no binding
B12 | no binding
B5 | no binding
B6 | no binding
B7 | no binding
B13 | no binding
B9 | no binding
B10 | no binding
B11 | no binding

target: T5, SARS-CoV-2 spike S1 subunit (SARS-CoV-2, UniProt P0DTC2 16-685); test: ELISA
T5 construct: domain: S1 subunit

Binder | binding result
B4 | no binding
B12 | no binding
B5 | no binding
B13 | no binding
B9 | no binding
B10 | no binding
B11 | no binding

target: T6, MERS spike extracellular domain (Middle East respiratory syndrome …, UniProt K9N5Q8 18-1296); test: ELISA
T6 construct: extracellular domain

Binder | binding result
B4 | binds
B12 | binds
B5 | no binding
B6 | no binding
B7 | no binding
B13 | binds
B8 | no binding
B9 | binds
B10 | binds
B11 | no binding

target: T7, SARS-CoV-2 spike S2 subunit (SARS-CoV-2, UniProt P0DTC2 686-1213); test: ELISA
T7 construct: domain: S2 subunit

Binder | binding result
B14 | no binding
B15 | no binding
B16 | no binding
B6 | no binding
B7 | no binding
B8 | no binding

target: T8, SARS spike S1 subunit (severe acute respiratory syndrome …, UniProt P59594 14-667); test: ELISA
T8 construct: domain: S1 subunit

Binder | binding result
B4 | binds
B12 | binds
B5 | no binding
B6 | no binding
B7 | no binding
B13 | no binding
B8 | no binding
B9 | no binding
B10 | no binding
B11 | no binding

target: T9, spike glycoprotein of wild type SARS-CoV-2 virus (SARS-CoV-2, UniProt P0DTC2 14-1273); test: cell-based or functional assay

Binder | Ct value of culture supernatant, after 5 days of incubation (virus control 13.0) [Ct] | fold reduction of virus [fold]
B14 | 22.7 | –
B15 | – | ~10100
B16 | 23 | ~1024
B8 | 18.8 | ~56
B9 | 22.7 | ~832

target: T10, SARS-CoV-2 nucleocapsid in fixed and permeabilised SARS-CoV-2 infected cells (SARS-CoV-2, UniProt P0DTC9 1-419); test: immunofluorescence assay
T10 construct: whole, on cells; also called N antigen

Binder | binding result
B1 | binds
B2 | binds
B3 | binds

target: T9, spike glycoprotein of wild type …; test: cell-based or functional assay; remark: another data set of the same source

Binder | Neutralization by FMNT EC50 [nM] | Neutralization by PRNT EC50 [nM]
B14 | 22.5 | 133
B15 | 0.51 | 8.67
B4 | – | 111
B16 | 3.68 | 0.05
B12 | – | 75.3
B5 | – | 133
B13 | – | 36
B8 | – | 133
B9 | – | 133
B10 | – | 133
B11 | – | 133
